Experimental data as given in article doi:10.1101/2020.06.05.136150 (bioRxiv, 2020).
No end group written: not given here. *: point of attachment. FITC = O=C1OC2(c3ccc(O)cc3Oc3cc(O)ccc32)c2ccc(NC(=S)*)cc21

B1: FITC labeled peptide (FITC-K69-Q93) of FtsN (peptide)
peptide: {FITC}-KVTGNGLPPKPEERWRYIKELESRQ
B2: ^EFtsN peptide (L75-Q93), unlabeled (peptide)
peptide: LPPKPEERWRYIKELESRQ

Assays:
PBP1bγ = target: T1, PBP1bγ (E. coli, UniProt P02919-2 1-799); test: fluorescence polarisation
T1 sequence: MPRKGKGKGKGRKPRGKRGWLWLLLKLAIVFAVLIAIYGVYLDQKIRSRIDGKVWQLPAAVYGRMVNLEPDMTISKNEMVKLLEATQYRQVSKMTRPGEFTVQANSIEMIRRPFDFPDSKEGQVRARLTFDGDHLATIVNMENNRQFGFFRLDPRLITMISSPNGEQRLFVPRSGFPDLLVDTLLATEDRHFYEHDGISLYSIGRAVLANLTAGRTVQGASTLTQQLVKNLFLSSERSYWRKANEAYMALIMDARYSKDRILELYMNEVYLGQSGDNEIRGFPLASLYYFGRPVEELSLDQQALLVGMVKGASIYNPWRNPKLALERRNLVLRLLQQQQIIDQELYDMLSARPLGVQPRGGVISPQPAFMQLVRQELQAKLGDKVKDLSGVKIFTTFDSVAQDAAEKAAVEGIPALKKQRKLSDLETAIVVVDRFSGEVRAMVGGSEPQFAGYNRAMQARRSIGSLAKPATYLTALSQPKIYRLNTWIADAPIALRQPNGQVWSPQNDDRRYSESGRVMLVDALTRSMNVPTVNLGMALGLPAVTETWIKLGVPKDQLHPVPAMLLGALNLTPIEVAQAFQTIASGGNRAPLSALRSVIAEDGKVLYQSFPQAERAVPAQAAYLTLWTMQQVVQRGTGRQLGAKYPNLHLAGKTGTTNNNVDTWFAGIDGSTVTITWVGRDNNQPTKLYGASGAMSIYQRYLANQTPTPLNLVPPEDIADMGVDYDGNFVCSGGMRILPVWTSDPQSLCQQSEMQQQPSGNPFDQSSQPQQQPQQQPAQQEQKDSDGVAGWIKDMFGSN

PBP1b (58-804) = target: T2, PBP1b (58-804) (E. coli, UniProt P02919 58-804); test: crystal structure
T2 sequence: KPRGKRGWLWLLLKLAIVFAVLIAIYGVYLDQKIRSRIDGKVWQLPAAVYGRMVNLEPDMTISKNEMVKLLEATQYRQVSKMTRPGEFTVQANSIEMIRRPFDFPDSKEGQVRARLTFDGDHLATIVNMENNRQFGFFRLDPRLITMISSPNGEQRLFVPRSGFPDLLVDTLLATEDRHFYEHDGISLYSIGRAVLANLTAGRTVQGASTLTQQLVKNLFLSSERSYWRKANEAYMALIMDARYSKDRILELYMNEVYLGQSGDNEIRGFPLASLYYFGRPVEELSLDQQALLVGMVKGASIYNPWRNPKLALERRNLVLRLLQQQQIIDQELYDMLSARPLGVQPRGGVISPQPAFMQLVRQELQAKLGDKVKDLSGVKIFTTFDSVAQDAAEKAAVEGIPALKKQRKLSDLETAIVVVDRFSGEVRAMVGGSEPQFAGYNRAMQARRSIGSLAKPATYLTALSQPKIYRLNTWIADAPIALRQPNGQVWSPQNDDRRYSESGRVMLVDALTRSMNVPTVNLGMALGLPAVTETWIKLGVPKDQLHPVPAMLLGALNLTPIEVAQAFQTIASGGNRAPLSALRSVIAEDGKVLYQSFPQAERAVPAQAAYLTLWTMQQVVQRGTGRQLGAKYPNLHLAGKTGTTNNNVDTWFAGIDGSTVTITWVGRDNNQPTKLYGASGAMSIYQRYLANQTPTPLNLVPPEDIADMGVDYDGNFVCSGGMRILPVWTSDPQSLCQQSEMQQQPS

Binder	Kd (PBP1bγ) [µM]	binding result (PBP1b (58-804))
B1	8.1 ± 1.7	
B2		binds
